Reference: PMC10266979

Tests used:
[1] = target: neuraminidase of influenza B virus B/Colorado/6/2017 (Victoria) (influenza B virus B/Colorado/6/2017 (Victoria))
[2] = target: neuraminidase (N2) of influenza A virus A/SouthAustralia/34/2019 (H3N2) (influenza A virus A/SouthAustralia/34/2019 (H3N2))
[3] = target: recombinant N2 NA A/Hong Kong/2671/2019 (N245 glycan) (influenza A virus H3N2 A/Hong Kong/2671/2019)
[4] = target: neuraminidase (N2) of influenza A virus A/Kansas/14/2017 (H3N2) (influenza A virus A/Kansas/14/2017 (H3N2))
[5] = target: neuraminidase (N1) of influenza A virus A/Idaho/07/2018 (H1N1) (influenza A virus A/Idaho/07/2018 (H1N1))
[6] = target: neuraminidase of influenza B virus B/Laos/0080/2016 (Victoria) (influenza B virus B/Laos/0080/2016 (Victoria))
[7] = target: neuraminidase (N1) of influenza A virus A/Puerto Rico/1934 (H1N1) (influenza A virus A/Puerto Rico/8/34 (H1N1)) (UniProt P03468)
[8] = target: neuraminidase of influenza B virus B/Brisbane/35/2018 (Victoria) (influenza B virus B/Brisbane/35/2018 (Victoria))
[9] = target: neuraminidase (N2) of influenza A virus A/Darwin/6/2021 (H3N2) (influenza A virus A/Darwin/6/2021 (H3N2))
[10] = target: neuraminidase (N1) of influenza A virus A/Victoria/2570/2019 (H1N1) (influenza A virus A/Victoria/2570/2019 (H1N1))
[11] = target: neuraminidase (N2) of influenza A virus A/Michigan/173/2020 (H3N2) (influenza A virus A/Michigan/173/2020 (H3N2))
[12] = target: neuraminidase of influenza B virus B/Washington/02/2019 (Victoria) (influenza B virus B/Washington/02/2019 (Victoria))
[13] = target: neuraminidase (N2) of influenza A virus A/Cambodia/E0826360/2020 (H3N2) (influenza A virus A/Cambodia/E0826360/2020 (H3N2))
[14] = target: neuraminidase (N2) of influenza A virus A/HongKong/4801/2014 (H3N2) (influenza A virus A/HongKong/4801/2014 (H3N2))
[15] = target: neuraminidase of influenza B virus B/Brisbane/60/2008 (Victoria) (influenza B virus B/Brisbane/60/2008 (Victoria))
[16] = target: neuraminidase (N1) of influenza A virus A/Hawaii/66/2019 (H1N1) (influenza A virus A/Hawaii/66/2019 (H1N1))
[17] = target: neuraminidase (N2) of influenza A virus A/Victoria/361/2011 (H3N2) (influenza A virus A/Victoria/361/2011 (H3N2))
[18] = target: neuraminidase (N2) of influenza A virus A/Tasmania/503/2020 (H3N2) (influenza A virus A/Tasmania/503/2020 (H3N2))
[19] = target: neuraminidase of influenza B virus B/Phuket/3073/2013 (Yamagata) (influenza B virus B/Phuket/3073/2013 (Yamagata))
[20] = target: neuraminidase of influenza B virus B/Utah/9/2014 (Yamagata) (influenza B virus B/Utah/9/2014 (Yamagata))
[21] = target: neuraminidase of influenza B virus B/Texas/6/2011 (Yamagata) (influenza B virus B/Texas/6/2011 (Yamagata))
[22] = target: neuraminidase (N1) of influenza A virus A/Illinois/45/2019 (H1N1) (influenza A virus A/Illinois/45/2019 (H1N1))
[23] = target: neuraminidase (N1) of influenza A virus A/Michigan/45/2015 (H1N1) (influenza A virus A/Michigan/45/2015 (H1N1))
[24] = target: recombinant N2 NA A/Hong Kong/2671/2019 (N245 glycan) (influenza A virus H3N2 A/Hong Kong/2671/2019); assay: SPR
[25] = target: neuraminidase of influenza B virus B/Lee/1940 (Ancestral) (influenza B virus B/Lee/1940 (Ancestral)) (UniProt P03474)
Chain of UniProt P03474 (P03474 whole entry): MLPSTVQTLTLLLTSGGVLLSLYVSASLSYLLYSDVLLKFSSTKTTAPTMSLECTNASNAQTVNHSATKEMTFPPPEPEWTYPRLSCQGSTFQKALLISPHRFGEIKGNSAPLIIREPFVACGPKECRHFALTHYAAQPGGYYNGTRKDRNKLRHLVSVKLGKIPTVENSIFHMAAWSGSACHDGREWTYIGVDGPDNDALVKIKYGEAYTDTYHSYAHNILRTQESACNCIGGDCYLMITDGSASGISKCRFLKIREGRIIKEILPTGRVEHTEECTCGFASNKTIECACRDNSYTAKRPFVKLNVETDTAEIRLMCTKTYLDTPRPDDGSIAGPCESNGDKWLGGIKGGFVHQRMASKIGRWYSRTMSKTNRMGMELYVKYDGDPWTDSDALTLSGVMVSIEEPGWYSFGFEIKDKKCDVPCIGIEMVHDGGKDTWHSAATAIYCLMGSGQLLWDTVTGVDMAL

Substance	In vitro neutralization IC50; virus B/Colorado/6/2017 (Victoria); mAb as IgG [1] [µg/mL]	In vitro neutralization IC50; virus A/SouthAustralia/34/2019 (H3N2); mAb as IgG [2] [µg/mL]	In vitro neutralization IC50; virus A/HongKong/2671/2019 (H3N2); mAb as IgG [3] [µg/mL]	In vitro neutralization IC50; virus A/Kansas/14/2017 (H3N2); mAb as IgG [4] [µg/mL]	In vitro neutralization IC50; virus A/Idaho/07/2018 (H1N1); mAb as IgG [5] [µg/mL]	In vitro neutralization IC50; virus B/Laos/0080/2016 (Victoria); mAb as IgG [6] [µg/mL]	In vitro neutralization IC50; virus A/Puerto Rico/1934 (H1N1); mAb as IgG [7] [µg/mL]	In vitro neutralization IC50; virus B/Brisbane/35/2018 (Victoria); mAb as IgG [8] [µg/mL]	In vitro neutralization IC50; virus A/Darwin/6/2021 (H3N2); mAb as IgG [9] [µg/mL]	In vitro neutralization IC50; virus A/Victoria/2570/2019 (H1N1); mAb as IgG [10] [µg/mL]	In vitro neutralization IC50; virus A/Michigan/173/2020 (H3N2); mAb as IgG [11] [µg/mL]	In vitro neutralization IC50; virus B/Washington/02/2019 (Victoria); mAb as IgG [12] [µg/mL]	In vitro neutralization IC50; virus A/Cambodia/E0826360/2020 (H3N2); mAb as IgG [13] [µg/mL]	In vitro neutralization IC50; virus A/HongKong/4801/2014 (H3N2); mAb as IgG [14] [µg/mL]	In vitro neutralization IC50; virus B/Brisbane/60/2008 (Victoria); mAb as IgG [15] [µg/mL]	In vitro neutralization IC50; virus A/Hawaii/66/2019 (H1N1); mAb as IgG [16] [µg/mL]	In vitro neutralization IC50; virus A/Victoria/361/2011 (H3N2); mAb as IgG [17] [µg/mL]	In vitro neutralization IC50; virus A/Tasmania/503/2020 (H3N2); mAb as IgG [18] [µg/mL]	In vitro neutralization IC50; virus B/Phuket/3073/2013 (Yamagata); mAb as IgG [19] [µg/mL]	In vitro neutralization IC50; virus B/Utah/9/2014 (Yamagata); mAb as IgG [20] [µg/mL]	other results
1G01 Fab	1.63	4.4	21.5	4.52	0.293	13.5	4.81	> 50	> 50	15.1	6.2	5.61	18.6	0.058	> 50	0.306	0.039	26.1	> 50	> 50	In vitro neutralization IC50; virus B/Texas/6/2011 (Yamagata); mAb as IgG [21]: > 50 µg/mL; In vitro neutralization IC50; virus A/Illinois/45/2019 (H1N1); mAb as IgG [22]: 0.673 µg/mL; In vitro neutralization IC50; virus A/Michigan/45/2015 (H1N1); mAb as IgG [23]: 0.57 µg/mL; Kd [24]: 375 nM
FNI9 Fab	0.669	0.76	0.073	0.284	0.079	0.047	0.028	0.026	1.13	0.168	3.09	0.031	1.61	0.022	1.16	0.039	0.082	2.01	0.193	0.245	In vitro neutralization IC50; virus B/Lee/1940 (Ancestral); mAb as IgG [25]: 0.051 µg/mL; In vitro neutralization IC50; virus B/Texas/6/2011 (Yamagata); mAb as IgG [21]: 0.104 µg/mL; In vitro neutralization IC50; virus A/Illinois/45/2019 (H1N1); mAb as IgG [22]: 0.243 µg/mL; In vitro neutralization IC50; virus A/Michigan/45/2015 (H1N1); mAb as IgG [23]: 0.151 µg/mL; Kd [24]: 16 nM
FNI17 Fab	0.042	2.98	5.07	0.485	0.022	0.018	0.011	0.024	> 50	0.036	33.1	0.019	24.3	0.208	0.191	0.018	0.175	5.07	0.117	0.392	In vitro neutralization IC50; virus B/Lee/1940 (Ancestral); mAb as IgG [25]: 0.071 µg/mL; In vitro neutralization IC50; virus B/Texas/6/2011 (Yamagata); mAb as IgG [21]: 0.062 µg/mL; In vitro neutralization IC50; virus A/Illinois/45/2019 (H1N1); mAb as IgG [22]: 0.035 µg/mL; In vitro neutralization IC50; virus A/Michigan/45/2015 (H1N1); mAb as IgG [23]: 0.073 µg/mL; Kd [24]: 2100 nM
FNI19 Fab	1.17	1.11	0.19	0.559	0.043	0.029	0.012	0.02	2.79	0.071	1.77	0.063	1.47	0.122	0.152	0.021	0.091	1.18	0.222	0.391	In vitro neutralization IC50; virus B/Lee/1940 (Ancestral); mAb as IgG [25]: 0.211 µg/mL; In vitro neutralization IC50; virus B/Texas/6/2011 (Yamagata); mAb as IgG [21]: 0.229 µg/mL; In vitro neutralization IC50; virus A/Illinois/45/2019 (H1N1); mAb as IgG [22]: 0.039 µg/mL; In vitro neutralization IC50; virus A/Michigan/45/2015 (H1N1); mAb as IgG [23]: 0.062 µg/mL; Kd [24]: 15.1 nM
